PMC5079754 (Biochimica et biophysica acta, 2016)

Legend:
[1] = target: Lmod2s1 (N-terminal residues 2-41 of leiomodin-2) (human) (UniProt Q6P5Q4); assay: circular dichroism, thermal unfolding
[2] = target: Tmod1s1 peptide (residues 1-38 of tropomodulin-1) (Gallus gallus); assay: circular dichroism, thermal unfolding
[3] = target: Lmod2s1 (N-terminal residues 2-41 of leiomodin-2) (human) (UniProt Q6P5Q4); assay: NMR titration; conditions: scale: two-chained αTM1a_(1-14)Zip molecule per Lmod2s1
[4] = peptide alone, versus WT αTM1a1-21Zip
[5] = target: Tmod1s1 (res. 1–38 of Tmod1); assay: CD thermal unfolding at 222 nm of Tpm1.1 model peptide complexes with Tmod1s1; format: binding, Gallus gallus

Chain of UniProt Q6P5Q4 (Q6P5Q4 2-41): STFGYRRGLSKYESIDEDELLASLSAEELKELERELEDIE

Row | Kd [1] [nM] | Kd [2] [nM] | Substance | further results
1 | 370 | 1000 | αTM1a_(1-21)Zip, model Tpm1.1 peptide (from UniProt P09493-1 1-21) | –
2 | 2310 | 3770 | αTM1a_(1-21)Zip[K15N], model Tpm1.1 peptide with the dilated cardiomyopathy-associated mutation K15N (from UniProt P09493-1 1-21) | –
3 | – | – | αTM1a_(1-14)Zip, model Tpm1.1 peptide (from UniProt P09493-1 1-14) | stoichiometry N [3]: 1
4 | – | – | H-GMDAIKKKMQMLKLDNENALDRNYHLENEVARLKKLVGER-OH [αTM1a1–21Zip[K15N]] | decrease in the Tm caused by the K15N mutation [4]: ~ 6 °C; Kd ([5]; read-out: Kd (30°C,µM), Tmod1s1, 30°C, Kd=exp(−ΔΔG/RT) from CD unfolding of the complex and of the Tpm1.1 peptide alone, 40 µM equimolar, 10 mM sodium phosphate pH 7.0, 100 mM NaCl, duplicates): 3.77 ± 0.01 µM; fold reduction of affinity of Tmod1s1 by the K15N mutation ([5]; versus WT αTM1a1-21Zip, P<0.001, One Way ANOVA): four-fold
